Test results as given in patent US9382305B2, “Relaxin fusion polypeptides and uses thereof” (BAYER INTELLECTUAL PROPERTY GMBH, priority 2011, dated 2016).
Like-named read-outs stand apart in the source and are kept apart here. Ends that are not written are not given here.

Columns and labels:
[1] = molecular target: T1, human LGR7/RXFP1 receptor (Homo sapiens, UniProt Q9HBX9); experiment: Activity testing: CRE-luciferase reporter in CHO-CRE-LGR7 cell line; assay type: cell-based; conditions: for EC50 (M): luciferase after 6 hours, examples of three to five independent experiments
T1 construct: cloned as 2271 base pair long DNA fragment; expressed in transfected cells; host or cells: CHO K1 (ATCC CCL-61) with CRE-luciferase reporter; receptor in pcDNA3.1(-)
T1 sequence (Q9HBX9 1-757): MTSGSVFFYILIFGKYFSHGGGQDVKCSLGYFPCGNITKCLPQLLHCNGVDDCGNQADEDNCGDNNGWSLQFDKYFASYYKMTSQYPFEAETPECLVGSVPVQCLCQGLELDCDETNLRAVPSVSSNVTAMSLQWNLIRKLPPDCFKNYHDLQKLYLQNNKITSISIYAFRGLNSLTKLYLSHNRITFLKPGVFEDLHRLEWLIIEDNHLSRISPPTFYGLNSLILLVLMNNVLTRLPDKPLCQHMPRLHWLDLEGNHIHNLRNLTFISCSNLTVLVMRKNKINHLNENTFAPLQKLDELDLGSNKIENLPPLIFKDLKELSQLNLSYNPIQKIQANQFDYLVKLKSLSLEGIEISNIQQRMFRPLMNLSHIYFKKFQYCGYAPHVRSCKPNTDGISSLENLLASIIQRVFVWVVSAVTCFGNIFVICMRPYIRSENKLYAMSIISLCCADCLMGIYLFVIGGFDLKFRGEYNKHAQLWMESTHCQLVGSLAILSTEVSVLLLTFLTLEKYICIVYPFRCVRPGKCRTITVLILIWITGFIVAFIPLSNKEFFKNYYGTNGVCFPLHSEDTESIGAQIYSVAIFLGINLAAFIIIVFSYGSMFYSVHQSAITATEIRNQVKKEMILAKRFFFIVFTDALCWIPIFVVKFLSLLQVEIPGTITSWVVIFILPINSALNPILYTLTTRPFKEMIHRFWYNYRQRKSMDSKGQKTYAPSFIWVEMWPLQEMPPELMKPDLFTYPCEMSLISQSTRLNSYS
Procedure: For stimulation, medium was exchanged by OptiMem (Gibco, #11058)+1% FCS containing different concentrations of the recombinantly expressed Relaxin variant proteins (usually starting at a concentration of 100 nM, followed by 1:2 dilutions). As positive control, commercially available recombinant expressed human Relaxin 2 (Genbank Accession number NP_604390.1) was used (R&D Systems, catalogue number 6586-RN-025). Subsequently, cells were incubated for 6 hours in a humified incubator at 5% carbon dioxide at 37° C. After 6 hours cells were tested for Luciferase activity using a Luciferase Assay System (Promega, # E1500) and using the Tecan Infinite 500 reader, luminescence mode, 1000 milliseconds integration time, measurement time 30 seconds.

[2] = In vivo plasma stability: serum levels by quantification ELISA after intravenous administration; conditions: male Wistar rats, 240 μg/kg intravenously, three days after application
Procedure: Blood samples were collected at the indicated time points after application and serum levels of each protein were measured by using a quantification ELISA.
At time points 0 hour, 1 hour, 3 days, 5 days, and 7 days after compound administration, blood samples were taken and the concentrations of the Fc-single chain Relaxin and non-modified hRelaxin2 were determined using the commercially available quantification ELISA (R&D Systems, Human Relaxin-2 Quantikine ELISA Kit, catalogue number DRL200).

[3] = system: isolated perfused rat heart; experiment: Isolated perfused rat heart (Langendorff); design: species or system Wistar rats
Procedure: Male Wistar rats (200-250 g) were anesthetized using Narcoren (100 mg/kg i.p.). The heart was rapidly excised and connected to a Langendorff perfusion system (FMI GmbH, Seeheim-Ober Beerbach, Germany). The heart was perfused at a constant rate of 10 ml/min with Krebs-Henseleit bicarbonate buffer solution equilibrated with 95% O2-5% CO2. The perfusion solution contained (in mmol/l): NaCl 118; KCl 3; NaHCO3 22; KH2PO41,2; MgSO4 1,2; CaCl2 1,8; Glucose 10; Na-Pyruvat 2. A pressure transducer registered the perfusion pressure in the perfusion system. The left ventricular pressure (LVP) was measured using a second pressure transducer connected to a water-filled balloon which was inserted into the left ventricle via the left atrium. The end diastolic pressure was initially set to 8 mm Hg by adjusting the volume of the balloon. The hearts were spontaneously beating. The signals from the pressure transducer were amplified, registered and used for the calculation of the heart frequency and +dp/dt by a personal computer.

[4] = intravenously administrated, humans (Dschietzig T. et al. (2009)); cited from earlier work
[5] = Table 2, scR fusion protein constructs

## Relaxin Fc: human Relaxin 2 (B chain-C chain-A chain) fused via IleGluGlyArgMetAsp to N terminal end of human IgG1 Fc
[1]
  biological activity (activation of LGR7), in words: no activity
[1]; [5]
  EC50 (M): not detectable
[1]; listed as human wildtype Relaxin 2 molecule with its orientation B chain-C chain-A chain f
  biological activity (activation of LGR7), in words: does not show any detectable activity

## hRelaxin 2: commercially available recombinant expressed human Relaxin 2 (R&D Systems, catalogue number 6586-RN-025), positive control (alpha QLYSALANKCCHVGCTKRSLARFC; beta SWMEEVIKLCGRELVRAQIAICGMSTWS; listed as Homo Sapiens)
[2]
  serum concentration (ELISA): undetectable
[3]; concentration of 1 nM
  contractility (inotropic activity): negative inotrophic activity
  coronary flow: increase
  heart rate: increase
[3]; isolated perfused rat heart
  potency relative to scR-Fc 13: ten fold more potent
[3]; perfusion, FIG. 11
  coronary flow: significant increase
  heart rate: significant increase
  left ventricular diastolic pressure: decrease
  left ventricular pressure (+dp/dtmax): decrease
[4]
  half-life: less than 10 minutes

## scR14: single chain human Relaxin 3 A-L-B, linker GlyGlyGlySerGlyGlyGlySerGly; non-purified; SEQ ID NO: 14 (DVLAGLSSSCCKWGCSKSEISSLCGGGSGGGSGRAAPYGVRLCGREFIRAVIFTCGGSRW; ends and bridges not checked; cysteine pairing not given here)
[1]
  biological activity (activation of LGR7), in words: detectable biological activity

## scR-Var7: single chain human Relaxin 2, linker LysArgSerLeuSerArgLysLysArg; B chain C terminus linked via IleGluGlyArgMetAsp to human IgG1 Fc; SEQ ID NO: 40
[1]; [5]
  EC50 (M): active (EC50 n.d.)

## scR-Var8: human IgG1 Fc linked via IleGluGlyArgMetAsp to A chain N terminus; A-B linker LysArgSerLeuSerArgLysLysArg; SEQ ID NO: 41
[1]; [5]
  EC50 (M): active (EC50 n.d.)

B1: scR20: B chain of human Relaxin 3-linker SEQ ID NO: 139-A chain of human Relaxin 2; Myc tag; SEQ ID NO: 156 (protein)
chain: EQKLISEEDLRAAPYGVRLCGREFIRAVIFTCGGSRWGGGSGGGSGQLYSALANKCCHVGCTKRSLARFC
modifications: ends and bridges not checked
[1]; Table 1, scR constructs
  EC50 (M): not detectable

B2: scR1: single chain human Relaxin 2 A-L-B, linker GlyGlyGly; Myc, hemagglutinin and 6 Histidine tags; SEQ ID NO: 1 (protein)
chain: EQKLISEEDLQLYSALANKCCHVGCTKRSLARFCGGGSWMEEVIKLCGRELVRAQIAICGMSTWSYPYDVPDYAHHHHHH
[1]; Table 1, scR constructs
  EC50 (M): not detectable

B3: scR6: single chain human Relaxin 2 A-L-B, fifteen amino acid linker SEQ ID NO: 173; Myc, hemagglutinin, 6 Histidine tags; SEQ ID NO: 6 (protein)
chain: EQKLISEEDLQLYSALANKCCHVGCTKRSLARFCGGGSGGGSGGGSGGGSWMEEVIKLCGRELVRAQIAICGMSTWSYPYDVPDYAHHHHHH
[1]; Table 1, scR constructs
  EC50 (M): not detectable

B4: scR15: single chain human Relaxin 3 A-L-B, linker GlyGlyGlySerGlyGlyGlySerGly; Myc tag; SEQ ID NO: 15 (protein)
chain: EQKLISEEDLDVLAGLSSSCCKWGCSKSEISSLCGGGSGGGSGRAAPYGVRLCGREFIRAVIFTCGGSRW
modifications: ends and bridges not checked
[1]
  biological activity (activation of LGR7), in words: detectable biological activity

B5: scR2: single chain human Relaxin 2 A-L-B, linker GlyGlyGlySerGly; Myc, hemagglutinin and 6 Histidine tags; SEQ ID NO: 2 (protein)
chain: EQKLISEEDLQLYSALANKCCHVGCTKRSLARFCGGGSGSWMEEVIKLCGRELVRAQIAICGMSTWSYPYDVPDYAHHHHHH
[1]; Table 1, scR constructs
  EC50 (M): not detectable

B6: scR13: single chain human Relaxin 2 A-L-B, linker LysArgSerLeuSerArgLysLysArg; non-purified; SEQ ID NO: 13 (protein)
chain: QLYSALANKCCHVGCTKRSLARFCKRSLSRKKRSWMEEVIKLCGRELVRAQIAICGMSTWS
modifications: ends and bridges not checked
[1]
  biological activity (activation of LGR7), in words: lower activity
[1]; Table 1, scR constructs
  EC50 (M): active (EC50 n.d.)

B7: scR18: B chain of human Relaxin 2-linker SEQ ID NO: 139-A chain of human Relaxin 3; Myc tag; SEQ ID NO: 154 (protein)
chain: EQKLISEEDLSWMEEVIKLCGRELVRAQIAICGMSTWSGGGSGGGSGDVLAGLSSSCCKWGCSKSEISSLC
modifications: relaxin fusion polypeptide
[1]; Table 1, scR constructs
  EC50 (M): not detectable

B8: scR-Fc 18: C terminal end of scR4 linked via 21 amino acid linker SEQ ID NO: 174 to human IgG1 Fc; SEQ ID NO: 33 (protein)
chain: QLYSALANKCCHVGCTKRSLARFCGGGSGGGSGSWMEEVIKLCGRELVRAQIAICGMSTWSGGGSGGGSGTLVTVSSESKYGPPCPPCPAPEAAAPELLGGPSVFLFPPKPKDTLMISRTPEVTCVVVDVSHEDPEVKFNWYVDGVEVHNAKTKPREEQYNSTYRVVSVLTVLHQDWLNGKEYKCKVSNKALPAPIEKTISKAKGQPREPQVYTLPPSRDELTKNQVSLTCLVKGFYPSDIAVEWESNGQPENNYKTTPPVLDSDGSFFLYSKLTVDKSRWQQGNVFSCSVMHEALHNHYTQKSLSLSPGK
modifications: relaxin fusion polypeptide
[1]; [5]
  EC50 (M): active (EC50 n.d.)

B9: scR17: A chain of human Relaxin 3-linker SEQ ID NO: 139-B chain of human Relaxin 2; Myc tag; SEQ ID NO: 153 (protein)
chain: EQKLISEEDLDVLAGLSSSCCKWGCSKSEISSLCGGGSGGGSGSWMEEVIKLCGRELVRAQIAICGMSTWS
modifications: relaxin fusion polypeptide
[1]
  biological activity (activation of LGR7), in words: reduced activity

B10: scR16: human Relaxin 2 B chain-linker GlyGlyGlySerGlyGlyGlySerGly-A chain; Myc tag; SEQ ID NO: 152 (protein)
chain: EQKLISEEDLSWMEEVIKLCGRELVRAQIAICGMSTWSGGGSGGGSGQLYSALANKCCHVGCTKRSLARFC
[1]; Table 1, scR constructs
  EC50 (M): not detectable

B11: scR19: A chain of human Relaxin 2-linker SEQ ID NO: 139-B chain of human Relaxin 3; Myc tag; SEQ ID NO: 155 (protein)
chain: EQKLISEEDLQLYSALANKCCHVGCTKRSLARFCGGGSGGGSGRAAPYGVRLCGREFIRAVIFTCGGSRW
modifications: ends and bridges not checked
[1]
  biological activity (activation of LGR7), in words: further reduction in the activity
[1]; Table 1, scR constructs
  EC50 (M): active (EC50 n.d.)
